The series has as its system Gp49 (Bacillus phage SPO1). Kind of series: SPR. The following applies: EMSA: 20 mM Tris, 50 mM NaCl, pH 7.5, 30 min at 4 C, 2% agarose in 0.5x TBE; SPR: Biacore T100, CM5, 25 C, buffer not stated. A general note: A gel shift assay detects complexes by their altered migration in electrophoresis.

Sequence AUGAAUAGUUAAACAACGUGG [ssRNA] returned a Kd of 1860 nM.

As usually defined, the Kd is the free concentration of one partner at which half of the binding sites on the other are occupied at equilibrium, for simple one-to-one binding.
